Molecular target: 메소텔린 (MIA PaCa2-MSLN 세포에 과발현) (UniProt Q13421)
Test: flow cytometry on MIA PaCa2-MSLN cells; 1 μg scFv, anti-6xHis tag detection

percent of cells bound [%]	Binder
> 68	MS501 scFv 단백질 (scFv) scFv: EVQLLESGGGLVQPGGSLRLSCAASGFTFSNYAMSWVRQAPGKGLEWVSGIYPDSGSTYYADSVKGRFTISRDNSKNTLYLQMNSLRAEDTAVYYCARNIYTFDYWGQGTLVTVSSGGGGSGGGGSGGGGSQSVLTQPPSASGTPGQRVTISCSGSSSNIGSNAVSWYQQLPGTAPKLLIYYNNQRPSGVPDRFSGSKSGTSASLAISGLRSEDEADYYCGSWDSSLSGYVFGGGTKLTVLG
> 68	MS503 scFv 단백질 (scFv) scFv: EVQLLESGGGLVQPGGSLRLSCAASGFTFSNYAMSWVRQAPGKGLEWVSSIYPGDGSTYYADSVKGRFTISRDNSKNTLYLQMNSLRAEDTAVYYCAKNAFTFDYWGQGTLVTVSSGGGGSGGGGSGGGGSQSVLTQPPSASGTPGQRVTISCSGSSSNIGSNAVSWYQQLPGTAPKLLIYYNSHRPSGVPDRFSGSKSGTSASLAISGLRSEDEADYYCGTWDSSLSGYVFGGGTKLTVLG
> 68	C2G4 scFv 단백질 (scFv) scFv: EVQLLESGGGLVQPGGSLRLSCAASGFTFSNYAMSWVRQAPGKGLEWVSGIPPDSGSKYYADSVRGRFTVSRDNSKNTLYLQMNSLRAEDTAVYYCAKNMLSFDYWGQGTLVTVSSGGGGSGGGGSGGGGSQSVLTQPPSASGTPGQRVTISCTGSSSNIGSNAVSWYQQLPGTAPKLLIYYNSKRPSGVPDRFSGSKSGTSASLAISGLRSEDEADYYCGSWDPSLNGYVFGGGTKVTVLG

— patent KR20200090598A
